US20180258163A1 (Chugai, published 2018)
Where two headings read alike, the source gives them in different places. Values belong to the binder of their own block, whether it stands above or below them.

Tests used:
human IL-8 [1] = biological target: T1, human IL-8 (human, UniProt P10145 23-99, limits assumed); assay: SPR pH 7.4 40C; 50C 1 week in PBS against initial
T1 construct: also called hIL-8
T1 sequence: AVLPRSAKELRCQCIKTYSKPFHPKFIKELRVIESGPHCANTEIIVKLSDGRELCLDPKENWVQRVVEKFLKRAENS
Experimental: The levels of human IL-8 binding to the modified antibodies were analyzed using BIACORE T200 (GE Healthcare). Measurements were carried out at 40° C. by using 0.05% tween20, 40 mM ACES, and 150 mM NaCl at pH 7.4 as the running buffer.
An appropriate amount of Protein A/G (PIERCE) was immobilized onto the Sensor chip CM4 (GE Healthcare) by the amine coupling method and the antibodies of interest was captured. Next, a diluted human IL-8 solution or a running buffer (used as a reference solution) was injected to allow interaction of the antibodies captured onto the sensor chip with human IL-8. The running buffer was also used to dilute human IL-8. To regenerate the sensor chip, 25 mM NaOH and 10 mM glycine-HCl (pH 1.5) were used. The measured binding level of human IL-8 and the amount of antibodies captured at that binding level were extracted using the BIACORE T200 Evaluation Software (GE Healthcare).
The amount of human IL-8-binding per 1000 RU of the amount of antibody captured was calculated for the initial samples and the samples for the thermal acceleration test. Furthermore, the ratio of the human IL-8-binding level for the initial samples to that for samples of the thermal acceleration test was calculated.

human IL-8 [2] = biological target: T1, human IL-8; assay: SPR pH 5.8 37C
Experimental: (§1) The following two running buffers were used, and measurements were carried out at the respective temperatures: (1) 0.05% tween20, 40 mM ACES, 150 mM NaCl, pH 7.4, 40° C.: and (2) 0.05% tween20, 40 mM ACES, 150 mM NaCl, pH 5.8, 37° C.
(§2) An appropriate amount of Protein A/G (PIERCE) was immobilized onto the Sensor chip CM4 (GE Healthcare) by the amine coupling method and the antibodies of interest were captured. Next, a diluted human IL-8 solution or a running buffer (used as a reference solution) was injected to allow interaction of the antibodies captured onto the sensor chip with human IL-8. For the running buffer, either one of the above-mentioned solutions was used, and the respective buffers were also used to dilute human IL-8. To regenerate the sensor chip, 25 mM NaOH and 10 mM glycine-HCl (pH 1.5) were used. KD (M) of each antibody for human IL-8 was calculated based on the association rate constant kon (1/Ms) and dissociation rate constant koff (1/s) which are kinetic parameters calculated from sensorgrams obtained by the measurements. The BIACORE T200 Evaluation Software (GE Healthcare) was used to calculate each parameter.

human IL-8 [3] = biological target: T1, human IL-8; assay: SPR pH 7.4 40C
Experimental: as §1, §2

human IgE [4] = biological target: T2, human IgE (human, UniProt P01854-1 1-428); assay: SPR, Ab captured, IgE analyte, pH 5.8, 25C
T2 construct: whole IgE; also called hIgE
Experimental: (§3) An appropriate amount of Protein A/G (ACTIGEN) was fixed onto Sensor chip CM4 (GE Healthcare) by the amine coupling method to capture the antibodies of interest. Next, human IgE was made to interact with the antibodies captured onto the sensor chip by injecting a diluted IgE solution and a running buffer (used as a reference solution). For the running buffer, either of the buffers (1) and (2) above was used, and human IgE was diluted using the respective buffer. To regenerate the sensor chip, 10 mM glycine-HCl at pH 1.5 was used. All measurements were carried out at 25° C. KD (M) for human IgE was calculated for each antibody based on the association rate constant ka (1/Ms) and dissociation rate constant kd (1/s), which are kinetic parameters calculated from the sensorgrams obtained by the measurements. The BIACORE T100 Evaluation Software (GE Healthcare) was used to calculate each parameter.

human IgE [5] = biological target: T2, human IgE; assay: SPR, Ab captured, IgE analyte, pH 7.4, 25C
Experimental: as §3

soluble human FcγRIIb [6] = biological target: T3, soluble human FcγRIIb (human, UniProt P31994 43-217, limits assumed); assay: SPR, Ab-IgE complex over captured hFcγRIIb, pH 7.4, 25C
T3 construct: soluble His-tagged form; also called hFcγRIIb
T3 sequence (looked up): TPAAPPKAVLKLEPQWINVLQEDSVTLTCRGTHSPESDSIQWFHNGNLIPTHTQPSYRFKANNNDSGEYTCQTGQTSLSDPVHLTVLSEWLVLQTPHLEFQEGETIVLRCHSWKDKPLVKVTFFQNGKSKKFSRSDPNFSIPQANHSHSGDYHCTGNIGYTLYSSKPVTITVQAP
Experimental: (§4) Regarding the produced Fc region variant-containing antibodies, binding assays between soluble human FcγRIIb and antigen-antibody complexes were performed using BIACORE T200 (GE Healthcare). Soluble human FcγRIIb (NCBI accession NM_004001.3) was produced in the form of a His-tagged molecule by a method known in the art. An appropriate amount of an anti-His antibody was fixed onto Sensor chip CM5 (GE Healthcare) by the amine coupling method using a His capture kit (GE Healthcare) to capture human FcγRIIb. Next, an antibody-antigen complex and a running buffer (as a reference solution) were injected, and interaction was allowed to take place with the human FcγRIIb captured onto the sensor chip. 20 mM N-(2-Acetamido)-2-aminoethanesulfonic acid, 150 mM NaCl, 1.2 mM CaCl₂, and 0.05% (w/v) Tween 20 at pH 7.4 was used as the running buffer, and the respective buffer was also used to dilute the soluble human FcγRIIb. To regenerate the sensor chip, 10 mM glycine-HCl at pH 1.5 was used. All measurements were carried out at 25° C. Analyses were performed based on binding (RU) calculated from sensorgrams obtained by the measurements, and relative values when the binding amount of Ab1H/Ab1L (original Ab1) was defined as 1.00 are shown. To calculate the parameters, the BIACORE T100 Evaluation Software (GE Healthcare) was used.

soluble human FcγRIIb [7] = biological target: T3, soluble human FcγRIIb; assay: as above; remark: listed apart in the source
Experimental: as §4

soluble human FcγRIIb [8] = biological target: T3, soluble human FcγRIIb; assay: as above; remark: listed apart in the source
Experimental: as §4

human IgE [9] = biological target: T2, human IgE; assay: SPR, IgE on chip, Ab analyte, pH 5.8, 37C
Experimental: (§5) Affinities of Ab2 and Ab3 for human IgE at pH 7.4 and pH 5.8 were evaluated as follows. The binding activity (dissociation constant KD (M)) of anti-hIgE antibodies toward hIgE were evaluated using BIACORE T200 (GE Healthcare). Measurements were carried out using the following two buffers as the running buffers: (1) 1.2 mM CaCl₂/0.05% tween 20, 20 mM ACES, 150 mM NaCl, pH 7.4; and (2) 1.2 mM CaCl₂/0.05% tween 20, 20 mM ACES, 150 mM NaCl, pH 5.8.
(§6) Then, to regenerate the sensor chip, 10 mM glycine-HCl at pH 1.5 was injected. All measurements were carried out at 37° C. Association rate constants ka (1/Ms) and dissociation rate constants kd (1/s) were calculated by analyzing the measurement results by curve-fitting using the BIACORE T200 Evaluation Software (GE Healthcare), and dissociation constants KD (M) were calculated based on those values.

human IgE [10] = biological target: T2, human IgE; assay: SPR, IgE on chip, Ab analyte, pH 7.4, 37C
Experimental: as §5, §6

T2 sequence (P01854 other isoform, or with tags, fused parts or gaps): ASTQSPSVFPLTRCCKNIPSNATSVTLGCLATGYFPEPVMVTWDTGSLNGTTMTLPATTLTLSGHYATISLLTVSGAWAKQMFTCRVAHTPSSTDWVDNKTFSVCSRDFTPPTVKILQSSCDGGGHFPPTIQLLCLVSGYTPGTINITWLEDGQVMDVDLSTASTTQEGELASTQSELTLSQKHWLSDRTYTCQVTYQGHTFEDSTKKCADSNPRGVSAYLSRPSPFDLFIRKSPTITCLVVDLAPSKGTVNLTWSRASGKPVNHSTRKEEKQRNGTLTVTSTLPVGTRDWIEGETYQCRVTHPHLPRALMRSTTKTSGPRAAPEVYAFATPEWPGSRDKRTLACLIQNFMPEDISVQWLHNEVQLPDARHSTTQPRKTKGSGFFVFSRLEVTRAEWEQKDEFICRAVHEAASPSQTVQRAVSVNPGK

B2: H1023/L0395 (antibody, human IgG1, kappa, name in Kabat numbering, V domains shown)
VH: QVQLVESGGGLVQPGGSLRLSCAASGFTFSDYYLSWVRQAPGKGLEWVGLIRNKDNGYHPEYSASVKGRFTISRDDSKNSLYLTMSDLKTEDTAVYYCARENHRYDVELAYWGQGTLVTVSS
VL: DIQMTQSPSSLSASVGDRVTITCRASEIIYSYLAWYQQKPGKAPKLLIYKAKTHADGVPSRFSGSGSGTDFTFTISSLQPEDIATYYCKHHFGFPRTFGQGTKVEIKR
Kd (human IL-8 [2]): 92 nM | koff (human IL-8 [2]): 0.018 s⁻¹ | Kd (human IL-8 [3]): 0.076 nM

B3: Ab1 (antibody, human IgG1, kappa)
heavy: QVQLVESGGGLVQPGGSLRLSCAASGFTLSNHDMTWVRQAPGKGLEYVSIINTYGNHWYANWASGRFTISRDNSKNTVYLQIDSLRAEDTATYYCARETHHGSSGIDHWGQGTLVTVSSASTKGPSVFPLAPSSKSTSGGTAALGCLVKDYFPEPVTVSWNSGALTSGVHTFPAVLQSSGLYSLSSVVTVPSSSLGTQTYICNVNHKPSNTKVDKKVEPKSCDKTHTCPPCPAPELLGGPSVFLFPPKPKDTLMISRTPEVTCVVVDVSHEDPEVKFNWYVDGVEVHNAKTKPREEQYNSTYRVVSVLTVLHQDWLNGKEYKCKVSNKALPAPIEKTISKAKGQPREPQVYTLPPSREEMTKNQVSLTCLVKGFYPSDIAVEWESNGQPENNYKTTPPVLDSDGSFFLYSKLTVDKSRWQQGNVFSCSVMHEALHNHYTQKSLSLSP
light: DIQMTQSPSSVSASVGDRVTITCQASESIYSGLAWYQQKPGQPPKLLIYDHSTLASGVPSRFSGSGSGTEYALTISSLQPEDFATYYCQHADYAHHSDNVFGGGTKVEIKRTVAAPSVFIFPPSDEQLKSGTASVVCLLNNFYPREAKVQWKVDNALQSGNSQESVTEQDSKDSTYSLSSTLTLSKADYEKHKVYACEVTHQGLSSPVTKSFNRGEC
notes: also called Ab1H/Ab1L; original Ab1; copies: 2 + 2
Kd (human IgE [4]): 2400 nM | koff (human IgE [4]): 0.039 s⁻¹ | kon (human IgE [4]): 16000 M⁻¹ s⁻¹ | Kd (human IgE [5]): 2.3 nM | koff (human IgE [5]): 0.006 s⁻¹ | kon (human IgE [5]): 2.7e+06 M⁻¹ s⁻¹ | BIACORE fold (relative binding, original Ab1=1.00) (soluble human FcγRIIb [6]): 1 fold | BIACORE fold (relative binding, original Ab1=1.00) (soluble human FcγRIIb [7]): 1 fold | BIACORE fold (relative binding, original Ab1=1.00) (soluble human FcγRIIb [8]): 1 fold

B5: Ab2 (antibody, human IgG1, kappa, V domains shown)
VH: QSVEESGGRLVTPGTPLTLTCTVSGFSLSSFNMDWVRQAPGEGLEWIGAVSTGGSAYYAKWAKGRFTISKTSTAVDLKITSPTTEDTATYFCARVDSSGWGYFDLWGQGTLVTVSS
VL: AIEMTQTPFSVSAAVGGTVTINCQASENIYSSLAWYQQKPGQPPKLLIYYASNLASGVSSRFKGSGSGTDFTLTISDLECADAATYYCQSYYFISSTDFNAFGGGTEVVVKR
Kd (human IgE [9]): 97 nM | koff (human IgE [9]): 0.053 s⁻¹ | kon (human IgE [9]): 550000 M⁻¹ s⁻¹ | Kd (human IgE [10]): 1.5 nM | koff (human IgE [10]): 0.0045 s⁻¹ | kon (human IgE [10]): 2.9e+06 M⁻¹ s⁻¹

B9: Ab3 (antibody, human IgG1, kappa, V domains shown)
VH: QSLEESGGDLVKPGASLTLTCTTSVFDLSSYYWICWVRQAPGKGLEWIACVYATSGSTDYATWAKGRLTISKASSTTVTLQMTSLTAADTATYFCARGGIYGGDGFNLWGPGTLVTVSS
VL: AFELTQTPASVEAAVGGTVTINCQASESISNWLAWYQQKPGQPPKLLIYRASTLTSGVPSRFKGSGSGTEFTLTISDLECADAATYYCQSYDPSIIDGFAFGGGTEVVVKR
Kd (human IgE [9]): 230 nM | koff (human IgE [9]): 0.033 s⁻¹ | kon (human IgE [9]): 140000 M⁻¹ s⁻¹ | Kd (human IgE [10]): 4.9 nM | koff (human IgE [10]): 0.0079 s⁻¹ | kon (human IgE [10]): 1.6e+06 M⁻¹ s⁻¹

More lines, now with the values ahead:

Ratio of IL-8 Amount (Thermal Acceleration/Initial) (human IL-8 [1]): 0.64
B1: H1009/L395 (antibody, human IgG1, kappa)
heavy: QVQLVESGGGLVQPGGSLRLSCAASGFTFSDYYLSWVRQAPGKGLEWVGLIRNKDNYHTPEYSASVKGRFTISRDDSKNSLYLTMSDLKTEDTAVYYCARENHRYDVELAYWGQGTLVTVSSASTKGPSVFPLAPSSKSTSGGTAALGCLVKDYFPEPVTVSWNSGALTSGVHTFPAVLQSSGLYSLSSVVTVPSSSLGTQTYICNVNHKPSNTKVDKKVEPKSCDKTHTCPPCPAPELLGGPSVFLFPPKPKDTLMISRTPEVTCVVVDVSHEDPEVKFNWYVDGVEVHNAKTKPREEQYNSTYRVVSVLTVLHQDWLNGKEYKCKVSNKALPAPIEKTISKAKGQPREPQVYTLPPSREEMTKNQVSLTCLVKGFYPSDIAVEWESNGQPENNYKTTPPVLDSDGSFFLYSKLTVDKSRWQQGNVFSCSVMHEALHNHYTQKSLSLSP
light: DIQMTQSPSSLSASVGDRVTITCRASEIIYSYLAWYQQKPGKAPKLLIYKAKTHADGVPSRFSGSGSGTDFTFTISSLQPEDIATYYCKHHFGFPRTFGQGTKVEIKRTVAAPSVFIFPPSDEQLKSGTASVVCLLNNFYPREAKVQWKVDNALQSGNSQESVTEQDSKDSTYSLSSTLTLSKADYEKHKVYACEVTHQGLSSPVTKSFNRGEC
notes: also called H1009/L0395; H1009/L395-IgG1

BIACORE fold (relative binding, original Ab1=1.00) (soluble human FcγRIIb [8]): 0.79 fold
B4: Ab1H-P1653m/Ab1L (antibody, human IgG1, kappa, name in EU numbering)
heavy: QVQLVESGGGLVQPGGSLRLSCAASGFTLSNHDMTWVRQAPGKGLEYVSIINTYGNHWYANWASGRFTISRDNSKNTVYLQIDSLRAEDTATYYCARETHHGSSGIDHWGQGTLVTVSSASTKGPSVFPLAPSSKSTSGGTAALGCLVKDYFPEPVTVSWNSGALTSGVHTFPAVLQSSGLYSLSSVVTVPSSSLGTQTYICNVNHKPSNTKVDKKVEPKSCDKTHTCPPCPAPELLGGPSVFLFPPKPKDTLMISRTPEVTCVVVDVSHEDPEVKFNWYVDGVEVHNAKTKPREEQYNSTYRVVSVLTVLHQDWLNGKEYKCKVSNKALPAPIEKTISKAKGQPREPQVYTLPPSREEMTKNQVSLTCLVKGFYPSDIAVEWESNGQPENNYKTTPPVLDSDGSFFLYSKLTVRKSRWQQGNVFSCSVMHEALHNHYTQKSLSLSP
light: DIQMTQSPSSVSASVGDRVTITCQASESIYSGLAWYQQKPGQPPKLLIYDHSTLASGVPSRFSGSGSGTEYALTISSLQPEDFATYYCQHADYAHHSDNVFGGGTKVEIKRTVAAPSVFIFPPSDEQLKSGTASVVCLLNNFYPREAKVQWKVDNALQSGNSQESVTEQDSKDSTYSLSSTLTLSKADYEKHKVYACEVTHQGLSSPVTKSFNRGEC
notes: copies: 2 + 2

Kd (human IL-8 [2]): 71000 nM
B6: H1000/L0442 (antibody, human IgG1, kappa, name in Kabat numbering, V domains shown)
VH: QVQLVESGGGLVQPGGSLRLSCAASGFTFSEYYLSWVRQAPGKGLEWVGLIRNKDNHHTPEYSASVKGRFTISRDDSKNSLYLTMSDLKTEDTAVYYCARENHRYDVELAYWGQGTLVTVSS
VL: DIQMTQSPSSLSASVGDRVTITCRASEIIYEYLAWYQQKPGKAPKLLIYKAKTHADGVPSRFSGSGSGTDFTFTISSLQPEDIATYYCKHHFGFPRTFGQGTKVEIKR

Kd (human IL-8 [2]): 7700 nM
B7: H1050/L0395 (antibody, human IgG1, kappa, name in Kabat numbering, V domains shown)
VH: QVQLVESGGGLVQPGGSLRLSCAASGFTFSEYYLSWVRQAPGKGLEWVGLIRNKDNYHTPEYSASVKGRFTISRDDSKNSLYLTMSDLKTEDTAVYYCARENHRYDVELAYWGQGTLVTVSS
VL: DIQMTQSPSSLSASVGDRVTITCRASEIIYSYLAWYQQKPGKAPKLLIYKAKTHADGVPSRFSGSGSGTDFTFTISSLQPEDIATYYCKHHFGFPRTFGQGTKVEIKR

Ratio of IL-8 Amount (Thermal Acceleration/Initial) (human IL-8 [1]): 0.49
B8: H1040/L0442 (antibody, human IgG1, kappa, name in Kabat numbering, V domains shown)
VH: QVQLVESGGGLVQPGGSLRLSCAASGFTFSEYYLSWVRQAPGKGLEWVGLIRNKDNHHHPEYSASVKGRFTISRDDSKNSLYLTMSDLKTEDTAVYYCARENHRYDVELAYWGQGTLVTVSS
VL: DIQMTQSPSSLSASVGDRVTITCRASEIIYEYLAWYQQKPGKAPKLLIYKAKTHADGVPSRFSGSGSGTDFTFTISSLQPEDIATYYCKHHFGFPRTFGQGTKVEIKR
